Measurements reported in publication PMC11775670.

The substances below were run against PksD (Bacillus subtilis str. 168) (UniProt O34877). Conditions: scale: % relative to the acetyl-PksJ ACP4 domain.
UniProt O34877, sequence (O34877 whole entry, the tested form may be a part): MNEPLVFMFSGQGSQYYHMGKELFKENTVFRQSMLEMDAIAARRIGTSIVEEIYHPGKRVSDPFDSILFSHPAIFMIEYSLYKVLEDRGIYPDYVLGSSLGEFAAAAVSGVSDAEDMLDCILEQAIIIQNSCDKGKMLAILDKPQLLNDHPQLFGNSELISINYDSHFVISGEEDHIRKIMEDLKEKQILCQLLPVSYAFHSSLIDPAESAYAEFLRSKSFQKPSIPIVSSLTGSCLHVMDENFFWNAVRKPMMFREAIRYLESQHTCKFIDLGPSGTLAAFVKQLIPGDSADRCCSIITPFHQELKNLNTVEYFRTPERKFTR

acetyl group hydrolysis by PksD relative to the acetyl-PksJ ACP4 domain, intact protein-MS | Substance
7 | acetyl-loaded IcoA PCP2 domain (domain or fragment)
12 | acetyl-loaded BlmVIII ACP7 domain (domain or fragment)
41 | acetyl-loaded GbnD5 ACP12 domain (domain or fragment)
